The results in this text go back to paper PMC6019326.

Read-outs that look alike come from different tables or passages of the source.

Assay in all cases: SPR
For test [1], the target named is recombinant APOL1 G1 protein (His-tag fused, risk variant) (human) (UniProt O14791).
Test [2] concerns the target recombinant APOL1 G2 protein (His-tag fused, risk variant) (human) (UniProt O14791).
Test [3] has as its target recombinant APOL1 G0 protein (His-tag fused, reference allele) (human) (UniProt O14791).
Test [4] deals with recombinant APOL1 G1 protein (His-tag fused, risk variant) (human) (UniProt O14791). The source holds these as a separate data set.
The target in test [5] is recombinant APOL1 G2 protein (His-tag fused, risk variant) (human) (UniProt O14791). This is another data set of the same source.

For “human integrin α3β1 (from UniProt P26006 33-1051; P05556 21-728) (complex)”, the Kd in test [1] and in test [2] was > 1000 µM each time.

Take “human recombinant protein integrin αvβ3 (from UniProt P06756 31-1048; P05106 27-718) (complex)”: the Kd in test [1] is 0.528 µM; in test [3], 0.574 µM; in test [2], 10.7 µM; in test [4] it was 0.007 µM; in test [5] it was 0.007 µM.

For the substance “human suPAR (soluble urokinase plasminogen activator receptor), recombinant (from UniProt Q03405 23-305)”, the KD for suPAR in the presence of αvβ3 integrin (5 nM) with Mn2+ amounted to 0.277 µM in test [1] and 0.024 µM in test [2].

For orientation: Kd means the concentration at which binding is half-saturated.
